Test results published in publication PMC9693254.

Substrate: CCOC(=O)[C@H](CCCNC(=N)N)NC(=O)c1ccccc1
Assay: purified protein
Details: 50 mM Tris/HCl pH 8.0, 25 mM NaCl, 1 mM EDTA, 25 °C, substrate 25–100 μM, apparent Km, numbering of proCCN
[1] = CCN' auto-processed from proCCN'
[2] = mature CCN' prepared from [K8D,K63G,K131G,K133A]-proCCN (K8D lies in the removed propeptide,

B1: cocoonase (CCN), mature form (Bombyx mori; K85G) (protein)
chain: IVGGEEISINKVPYQAYLLLQKDNEYFQCGGSIISKRHILTAAHCIEGISGVTVRIGSSNSNKGGTVYTAKSKVAHPKYNSKTKNNDFAIVTVNKDMAIDGKTTKIITLAKEGSSVPDKTKLLVSGWGATSEGGSSSTTLRAVHVQAHSDDECKKYFRSLTSNMFCAGPPEGGKDSCQGDSGGPAVKGNVQLGVVSFGVGCARKNNPGIYAKVSAAAKWIKST
Km: 400 µM | Vmax: 0.006 µM/min

B2: cocoonase (CCN), mature form (Bombyx mori; K153G/K155A/K85G) (protein)
chain: IVGGEEISINKVPYQAYLLLQKDNEYFQCGGSIISKRHILTAAHCIEGISGVTVRIGSSNSNKGGTVYTAKSKVAHPKYNSKTKNNDFAIVTVNKDMAIDGKTTKIITLAKEGSSVPDGTALLVSGWGATSEGGSSSTTLRAVHVQAHSDDECKKYFRSLTSNMFCAGPPEGGKDSCQGDSGGPAVKGNVQLGVVSFGVGCARKNNPGIYAKVSAAAKWIKST
Km [1]: 370 µM | Vmax [1]: 0.0084 µM/min | Km [2]: 920 µM | Vmax [2]: 0.0276 µM/min
